Residue numbers refer to the chain shown, from its start.
What was measured:
Experiment in all cases: SEC; SufBCD complexes co-expressed in E. coli and co-purified on Phenyl FF, Q XL and Sephacryl S-200; eluted from gel filtration at about 160 kDa; subunit composition checked by SDS-PAGE of the purified sample
Conditions in all cases: both partners purified
SufB^K303A = biological target: T1, SufB^K303A (Escherichia coli, UniProt P77522 1-495, SufB^K303A)
T1 construct: SufB of the Escherichia coli sufABCDSE operon
T1 sequence: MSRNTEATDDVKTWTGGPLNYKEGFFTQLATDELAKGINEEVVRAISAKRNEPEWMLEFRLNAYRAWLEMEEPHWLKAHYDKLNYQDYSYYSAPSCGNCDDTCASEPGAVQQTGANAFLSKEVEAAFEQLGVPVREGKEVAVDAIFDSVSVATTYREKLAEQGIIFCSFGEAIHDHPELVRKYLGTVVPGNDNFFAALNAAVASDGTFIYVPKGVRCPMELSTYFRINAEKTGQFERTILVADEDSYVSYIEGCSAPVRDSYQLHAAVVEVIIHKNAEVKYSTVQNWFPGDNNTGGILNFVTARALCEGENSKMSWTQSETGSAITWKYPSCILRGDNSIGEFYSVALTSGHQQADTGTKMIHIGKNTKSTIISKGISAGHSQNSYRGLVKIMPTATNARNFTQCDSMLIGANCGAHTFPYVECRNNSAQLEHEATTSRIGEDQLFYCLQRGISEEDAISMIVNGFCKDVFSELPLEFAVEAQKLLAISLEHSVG

SufB^N228A = biological target: T2, SufB^N228A (Escherichia coli, UniProt P77522 1-495, SufB^N228A)
T2 construct: SufB of the Escherichia coli sufABCDSE operon
T2 sequence: T1 sequence with N228A, A303K

SufB^C405A = biological target: T3, SufB^C405A (Escherichia coli, UniProt P77522 1-495, SufB^C405A)
T3 construct: SufB of the Escherichia coli sufABCDSE operon
T3 sequence: T1 sequence with A303K, C405A

SufB^E434A = biological target: T4, SufB^E434A (Escherichia coli, UniProt P77522 1-495, SufB^E434A)
T4 construct: SufB of the Escherichia coli sufABCDSE operon
T4 sequence: T1 sequence with A303K, E434A

Measured: binding result

B1: SufC (natural protein, Escherichia coli)
chain: MLSIKDLHVSVEDKAILRGLSLDVHPGEVHAIMGPNGSGKSTLSATLAGREDYEVTGGTVEFKGKDLLALSPEDRAGEGIFMAFQYPVEIPGVSNQFFLQTALNAVRSYRGQETLDRFDFQDLMEEKIALLKMPEDLLTRSVNVGFSGGEKKRNDILQMAVLEPELCILDESDSGLDIDALKVVADGVNSLRDGKRSFIIVTHYQRILDYIKPDYVHVLYQGRIVKSGDFTLVKQLEEQGYGWLTEQQ
notes: SufC of the Escherichia coli sufABCDSE operon; also called SufC subunit of the SufBCD complex
binds: SufB^K303A | SufB^N228A | SufB^C405A | SufB^E434A

B2: SufD (natural protein, Escherichia coli)
chain: MAGLPNSSNALQQWHHLFEAEGTKRSPQAQQHLQQLLRTGLPTRKHENWKYTPLEGLINSQFVSIAGEISPQQRDALALTLDSVRLVFVDGRYVPALSDATEGSGYEVSINDDRQGLPDAIQAEVFLHLTESLAQSVTHIAVKRGQRPAKPLLLMHITQGVAGEEVNTAHYRHHLDLAEGAEATVIEHFVSLNDARHFTGARFTINVAANAHLQHIKLAFENPLSHHFAHNDLLLAEDATAFSHSFLLGGAVLRHNTSTQLNGENSTLRINSLAMPVKNEVCDTRTWLEHNKGFCNSRQLHKTIVSDKGRAVFNGLINVAQHAIKTDGQMTNNNLLMGKLAEVDTKPQLEIYADDVKCSHGATVGRIDDEQIFYLRSRGINQQDAQQMIIYAFAAELTEALRDEGLKQQVLARIGQRLPGGAR
notes: SufD of the Escherichia coli sufABCDSE operon; One SufD per SufBCD complex (1:2:1); also called SufD subunit of the SufBCD complex
binds: SufB^K303A | SufB^N228A | SufB^C405A | SufB^E434A

Source: paper PMC5571166, “Mapping the key residues of SufB and SufD essential for biosynthesis of iron-sulfur clusters” (Scientific Reports, 2017)
